The target in assay [1] is T1, wild type Stat3 (Homo sapiens, UniProt P40763).
T1 construct: made in house; host or cells: Sf9 insect cells (baculovirus, pFastBac1)
Description: Mirror resonance affinity assay (resonant mirror biosensor). It is filed as binding. How it is done:
(§1) Kinetics experiments were performed using an lasys Auto+ resonant mirror biosensor (Affinity Sensor, Paramus, N.J.) (see Sadowski et. al, 1986). Briefly, two-welled cuvettes coated on the bottom of each well with biotin were purchased from Affinity Sensor and prepared for immobilization of biotinylated peptides by coating each surface with 0.04 mg/ml NeutrAvidin (Pierce) and washing with PBS-T (20 mM Na Phosphate, 0.05% Tween-20). Biotinylated peptide (5 μg) was added into each well—experimental peptide to one well and control peptide to the other—and change in arc seconds monitored simultaneously in both wells using the biosensor until stable followed by washing with PBS-T. Real-time binding of Stat3 was conducted at 25° C. at a stir speed of 70 for 10 min starting at the lowest concentration of Stat3. The wells were washed out with three changes of 60 μl PBS-T, and dissociation was allowed to proceed for 5 min. Each well bottom was regenerated by washing with […] of 100 mM formic acid for 2 min and equilibrated with PBS-T for the next round of association assay. Data were collected automatically and analyzed with the FASTplot and GraFit software (see Sheinerman et. al, 2003).
(§2) Mirror resonance affinity assay. Two cells of a biotin-coated cuvette pretreated with saturating amounts of NeutrAvidin. One well of the cuvette was pretreated with biotinylated phosphopeptide based on Y1068 (pY1068, left panel), while the other well was pretreated with biotinylated non-phosphorylated peptide Y1068 (Y1068, right panel) as a control for non-specific binding. Wild type or mutated Stat3 protein was added in the concentrations indicated to each of the two cells and mirror resonance measurements recorded continuously for 10 min as shown.
To obtain quantitative kinetic information about the binding of Stat3 to G-CSFR Y704 and Y744 including association rates (kass), disassociation rates (kdiss) and dissociation equilibrium constants (KD), real-time affinity measurements using a mirror resonance biosensor were performed. The biosensor exploits surface plasmon resonance to measure in real time the alteration in the angle of a laser light reflected from a surface upon which binding events are occurring. Biotinylated peptides were immobilized onto the bottom surface of cuvette wells pre-coated with NeutrAvidin. The interaction of peptides with Stat3 added at different concentrations was measured in real time as altered deflection of a laser light striking the bottom surface of the cuvette; the alterations in the deflection angle measured in arc seconds was analyzed with GraFit software. […] The slightly lower KD for Y704 vs. Y744 is attributable to a faster association rate of Stat3 binding to this phosphododecapeptide.

Assay [2] concerns the target T2, Stat3-3M (Homo sapiens, UniProt P40763, E638L/Y640F/Y657F).
T2 construct: made in house; host or cells: Sf9 insect cells (baculovirus, pFastBac1)
Described as above. It is filed as binding. How it is done:
as §1, §2

Assay [3] concerns the target T3, Stat3-4M (Homo sapiens, UniProt P40763, C687A/Q692L/S691A/Y657F).
T3 construct: made in house; host or cells: Sf9 insect cells (baculovirus, pFastBac1)
Described as above. The format is binding. How it is done:
as §1, §2

In assay [4] the target is T4, Stat3-6M (Homo sapiens, UniProt P40763, C687A/E638L/Q692L/S691A/Y640F/Y657F).
T4 construct: made in house; host or cells: Sf9 insect cells (baculovirus, pFastBac1)
Described as above. It is filed as binding. As for the experimental part:
as §1, §2

The target of assay [5] is T3, Stat3-4M. Description: Phosphopeptide affinity immunoblot (peptide pull-down). It is filed as binding. To be noted: compared with wild type Stat3. How it is done:
(§3) NeutrAvidin agarose (40 μl; Pierce) was incubated with 10 μg of biotinylated peptide in 300 μl of Buffer A (20 mM HEPES pH 7.5, 20 mM NaF, 1 mM Na3VO4, 1 mM Na4P2O7, 1 mM EDTA, 1 mM EGTA, 20% glycerol, 0.05% NP-40, 1 mM DTT, 1 μg/ml leupeptin, 1 μg/ml aprotinin, 0.5 mM phenylmethylsulfonyl fluoride, 100 mM NaCl) at 4° C. for 2 h and washed with Buffer A 3 times. The NeutrAvidin-peptide complex was then mixed with His-tagged Stat3 protein (5 μg) in 1 ml of Buffer A (without NaCl and NP-40) at 4° C. for 2 h and washed thoroughly. Bound proteins were separated and immunoblotted using Stat3 monoclonal antibody (mAb).
NeutrAvidin agarose was incubated with the indicated biotinylated peptides (see Table 2 for exemplary sequences) or no peptide (CON) as control, washed thoroughly and mixed with identical amounts of wild type or mutant Stat3 proteins as indicated. Bound proteins were separated by SDS-PAGE and immunoblotted using Stat3 mAb. Lane ST represents purified wild type Stat3 (0.6 μg) loaded directly onto the gel as positive control.
Stat3 proteins in which mutations were introduced to alter side chains from charged or polar to non-polar within amino acid residues were predicted in each model to be critical for Stat3 binding (FIG. 1B). The recombinant Stat3 proteins were expressed in Sf9 insect cells and purified to equivalent levels using Ni-NTA resin (FIG. 1C).

The next assay addresses T5, Stat3-3M+K591L (Homo sapiens, UniProt P40763, E638L/K591L/Y640F/Y657F).
T5 construct: made in house; host or cells: Sf9 insect cells (baculovirus, pFastBac1)
The description is as above. The format is binding. As for the experimental part: as §3
(§4) To test the pocket 1 component of the two models and to ensure that the peptide pull-down system was sufficiently sensitive to detect reduced binding of Stat3 containing mutations in pocket 2, either K591L or R609L was added to the 3M mutant to generate Stat3-3M+K591L and Stat3-3M+R609L.
(§5) To test the pocket 1 component of the two models and to ensure that our peptide pull-down system was sufficiently sensitive to detect reduced binding of Stat3 containing mutations in pocket 2, either K591L or R609L was added to the 3M mutant to generate Stat3-3M+K591L and Stat3-3M+R609L.

The target in a further assay is T6, Stat3-3M+R609L (Homo sapiens, UniProt P40763, E638L/R609L/Y640F/Y657F).
T6 construct: made in house; host or cells: Sf9 insect cells (baculovirus, pFastBac1)
The description is as above. It is filed as binding. As for the experimental part:
as §3, §4, §5

Assay [6] concerns the target T7, Stat3-E638P (Homo sapiens, UniProt P40763, E638P).
T7 construct: made in house; host or cells: Sf9 insect cells (baculovirus)
Described as above. The format is binding. As for the experimental part: as §3
In FIG. 5C, NeutrAvidin agarose was incubated with the indicated biotinylated dodecapeptides (see Table 2 for sequence) or no peptide (CON) as control, washed thoroughly and mixed with wild type Stat3 protein. Bound proteins were separated by SDS-PAGE and immunoblotted using Stat3 mAb. Lane ST represents purified wild type Stat3 (0.6 μg) loaded directly onto the gel as a positive control.
To test the contribution of the E638 amide hydrogen to binding to G-CSFR Y704 and Y744 phosphododecapeptide, Stat3-E638P was generated by site-directed mutagenesis, which eliminated the amide hydrogen donor predicted to bind with oxygen within the +3 Q side chain.

The target of assay [7] is T1, wild type Stat3. The assay is described as above. To be noted: purified wild type Stat3. The format is binding. How it is done: as §3
Each peptide was incubated with equal amounts of purified wild type Stat3 protein in peptide pull-down assays (FIG. 1). NeutrAvidin agarose was incubated with the indicated biotinylated peptides (see Table 2 for sequence) or no peptide (CON) as control, washed thoroughly and mixed with identical amount of wild type Stat3. Bound proteins were separated by SDS-PAGE and immunoblotted using Stat3 mAb. Lane ST represents purified wild type Stat3 (0.6 μg) loaded directly onto the gel as positive control. […] Thus, Q at the +3 position of Y1068 phosphopeptide is required for Stat3 binding and appears to be as important for Stat3 binding as phosphorylation on tyrosine. […]

Assay [8] has as its target T8, wild type Stat3 (recombinant human Stat3alpha with N-terminal 6-histidine tag) (human, UniProt P40763 1-770).
T8 construct: Expressed in Sf9 cells and purified on Ni-NTA for peptide assays; expressed from pcDNA3.1 in 293T cells for the G-CSFR co-immunoprecipitation; also called WT; purified Stat3
Description: peptide pull-down: biotinylated peptide on NeutrAvidin agarose, purified His-tagged Stat3 protein added, bound protein immunoblotted with Stat3 mAb. (In general: A western blot detects proteins with antibodies after separation by electrophoresis.)

Assay [9] concerns the target T9, Stat3-3M (human, UniProt P40763 1-770, limits assumed). Described as above.
In assay [10] the target is T10, Stat3-4M (human, UniProt P40763 1-770, limits assumed). Described as above.
For assay [11], the target named is T11, Stat3-6M (human, UniProt P40763 1-770, limits assumed). The description is as above.
The target in assay [12] is T12, Stat3-E638P (human, UniProt P40763 1-770).
T12 construct: Produced in Sf9 cells; CD spectrum essentially identical to wild type
Described as above.

Assay [13] concerns the target T8, wild type Stat3 (recombinant human …). The description is as above. The source holds these as a separate data set.
For assay [14], the target named is T9, Stat3-3M. The assay is described as above. The source holds these as a separate data set.
Assay [15] deals with T10, Stat3-4M. The description is as above. The source holds these as a separate data set.
Assay [16] has as its target T11, Stat3-6M. Described as above. The source holds these as a separate data set.
Assay [17] addresses T12, Stat3-E638P. The description is as above. The source holds these as a separate data set.

Read-outs that look alike come from different tables or passages of the source. Non-standard residues stand in square brackets, D forms with d. No end group written: not given here. *: point of attachment. d‑Biotin‑LC = N-terminal biotin (d-Biotin-LC), O=C(CCCC[C@@H]1SC[C@@H]2NC(=O)N[C@@H]21)NCCCCCC(=O)*; pY = N[C@@H](Cc1ccc(OP(=O)(O)O)cc1)C(=O)O

Results on five molecules are retold here after patent publication US20060148715A1, “Structural requirements for STAT3 binding and recruitment to phosphotyrosine ligands” (BAYLOR COLLEGE OF MEDICINE, priority 2004, published 2006).

Usually Kd stands for the equilibrium constant for the complex coming apart.

T12 sequence (P40763 other isoform, or with tags, fused parts or gaps E638P E638P limits assumed): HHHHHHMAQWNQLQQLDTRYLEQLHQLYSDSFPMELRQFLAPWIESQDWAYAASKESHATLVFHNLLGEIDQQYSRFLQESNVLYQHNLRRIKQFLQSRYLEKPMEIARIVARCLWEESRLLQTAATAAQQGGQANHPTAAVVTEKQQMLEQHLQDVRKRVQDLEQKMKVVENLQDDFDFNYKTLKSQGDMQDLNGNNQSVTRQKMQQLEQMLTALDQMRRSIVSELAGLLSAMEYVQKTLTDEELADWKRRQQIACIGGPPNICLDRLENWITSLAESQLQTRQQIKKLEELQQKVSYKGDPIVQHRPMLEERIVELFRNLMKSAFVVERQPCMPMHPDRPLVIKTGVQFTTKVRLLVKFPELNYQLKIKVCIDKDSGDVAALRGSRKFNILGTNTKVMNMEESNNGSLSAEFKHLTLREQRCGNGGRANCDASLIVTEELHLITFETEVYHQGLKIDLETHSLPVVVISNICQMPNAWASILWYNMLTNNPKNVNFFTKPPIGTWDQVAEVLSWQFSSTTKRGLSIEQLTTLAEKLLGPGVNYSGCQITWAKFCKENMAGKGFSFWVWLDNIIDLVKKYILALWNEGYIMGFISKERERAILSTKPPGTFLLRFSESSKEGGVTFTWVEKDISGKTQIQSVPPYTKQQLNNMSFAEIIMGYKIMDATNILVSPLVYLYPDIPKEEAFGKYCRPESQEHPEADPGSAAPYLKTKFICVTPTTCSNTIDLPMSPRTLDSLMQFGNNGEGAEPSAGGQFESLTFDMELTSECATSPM
T8 sequence (P40763 other isoform, or with tags, fused parts or gaps limits assumed): as the sequence (P40763 other isoform, or with tags, fused parts or gaps E638P E638P limits assumed) above, with P644E counted along it
T9 sequence (P40763 other isoform, or with tags, fused parts or gaps limits assumed): as the sequence (P40763 other isoform, or with tags, fused parts or gaps E638P E638P limits assumed) above, with P644L, Y646F, Y663F counted along it
T1 sequence (P40763 whole entry): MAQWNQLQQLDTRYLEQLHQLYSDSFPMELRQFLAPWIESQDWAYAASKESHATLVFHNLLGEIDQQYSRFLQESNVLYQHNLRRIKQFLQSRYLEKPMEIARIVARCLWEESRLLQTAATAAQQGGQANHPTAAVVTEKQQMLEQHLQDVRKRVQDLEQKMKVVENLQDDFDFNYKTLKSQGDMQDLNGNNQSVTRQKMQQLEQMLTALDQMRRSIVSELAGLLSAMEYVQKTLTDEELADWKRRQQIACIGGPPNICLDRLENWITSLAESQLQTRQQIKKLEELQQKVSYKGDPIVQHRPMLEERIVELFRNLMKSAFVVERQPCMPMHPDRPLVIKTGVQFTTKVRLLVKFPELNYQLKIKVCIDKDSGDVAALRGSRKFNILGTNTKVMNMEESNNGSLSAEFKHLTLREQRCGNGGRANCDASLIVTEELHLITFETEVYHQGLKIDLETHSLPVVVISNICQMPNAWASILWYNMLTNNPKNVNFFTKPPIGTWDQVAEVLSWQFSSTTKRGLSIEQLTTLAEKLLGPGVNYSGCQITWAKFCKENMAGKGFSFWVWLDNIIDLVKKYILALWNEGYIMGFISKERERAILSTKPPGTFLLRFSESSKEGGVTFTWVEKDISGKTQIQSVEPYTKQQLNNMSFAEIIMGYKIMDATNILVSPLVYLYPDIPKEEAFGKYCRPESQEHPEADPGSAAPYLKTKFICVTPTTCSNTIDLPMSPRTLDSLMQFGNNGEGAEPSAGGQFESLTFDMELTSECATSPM
T10 sequence (P40763 other isoform, or with tags, fused parts or gaps limits assumed): as the sequence (P40763 other isoform, or with tags, fused parts or gaps E638P E638P limits assumed) above, with P644E, Y663F, C693A, S697A, Q698L counted along it
T3 sequence (P40763 whole entry Y657F/C687A/S691A/Q692L): as the sequence (P40763 whole entry) above, with Y657F, C687A, S691A, Q692L counted along it
T11 sequence (P40763 other isoform, or with tags, fused parts or gaps limits assumed): as the sequence (P40763 other isoform, or with tags, fused parts or gaps E638P E638P limits assumed) above, with P644L, Y646F, Y663F, C693A, S697A, Q698L counted along it
T5 sequence (P40763 whole entry K591L/E638L/Y640F/Y657F): as the sequence (P40763 whole entry) above, with K591L, E638L, Y640F, Y657F counted along it
T6 sequence (P40763 whole entry R609L/E638L/Y640F/Y657F): as the sequence (P40763 whole entry) above, with R609L, E638L, Y640F, Y657F counted along it
T4 sequence (P40763 whole entry E638L/Y640F/Y657F/C687A/S691A/Q692L): as the sequence (P40763 whole entry) above, with E638L, Y640F, Y657F, C687A, S691A, Q692L counted along it
T7 sequence (P40763 whole entry E638P): as the sequence (P40763 whole entry) above, with E638P counted along it
T2 sequence (P40763 whole entry E638L/Y640F/Y657F): as the sequence (P40763 whole entry) above, with E638L, Y640F, Y657F counted along it

Regarding `CC[C@H](C)[C@H](NC(=O)[C@H](Cc1ccc(OP(=O)(O)O)cc1)NC(=O)[C@H](CCC(=O)O)NC(=O)[C@@H]1CCCN1C(=O)[C@@H](NC(=O)[C@@H]1CCCN1C(=O)[C@H](CC(C)C)NC(=O)CCCCCNC(=O)CCCC[C@@H]1SC[C@@H]2NC(=O)N[C@@H]21)C(C)C)C(=O)N[C@@H](CC(N)=O)C(=O)N[C@@H](CCC(N)=O)C(=O)N[C@@H](CO)C(=O)N[C@H](C(=O)N1CCC[C@H]1C(=O)O)C(C)C` [Y1068 PDP, LPVPE(pY)INQSVP], the dissociation constant Kd at wild type Stat3 [1] turned out to be 223 nM; at Stat3-3M [2], 177 nM; on Stat3-4M [3] it was 271 ± 48 nM; on Stat3-6M [4], 249 ± 22 nM.

With “VQNPV(pY)HNQPLN (VQNPV[pY]HNQPLN) [Y1086 PDP]”, in the assay with Stat3-4M [5], the “level of Stat3-4M bound in peptide affinity immunoblot” value is on record as “equal to or greater than wild type Stat3”. For the same molecule, the “binding of Stat3-3M+K591L in peptide pull-down” value with Stat3-3M+K591L is “elimination of binding”. Also, in the assay with Stat3-3M+R609L, the “binding of Stat3-3M+R609L in peptide pull-down” value was “elimination of binding”. In the assay with Stat3-E638P [6], the “binding of Stat3-E638P in peptide affinity immunoblot” value is on record as “no binding”.

As for “LPVPEYINQSVP [unphosphorylated Y1068 dodecapeptide]”, the “Stat3 detected in peptide pull-down (Stat3 immunoblot)” value with wild type Stat3 [7] is listed as “little to no Stat3 was detected”.

{d‑Biotin‑LC}-PGPGHYLRCDST [Y744 non-phosphorylated dodecapeptide (G-CSFR)]: the binding result (in [8]; with Stat3-3M [9]; with Stat3-4M [10]; with Stat3-6M [11]; with Stat3-E638P [12]) was “no binding” each time.

In the case of {d‑Biotin‑LC}-VQNPVYHNQPLN [Y1086 non-phosphorylated dodecapeptide (EGFR)], the binding result (in assay [13]; with Stat3-3M [14]; with Stat3-4M [15]; in the assay with Stat3-6M [16]; with Stat3-E638P [17]) was “no binding” each time.
